The record followed here is patent US20160166613A1.

The target of assay [1] is CD19-CAR-FRBl2 (CD19 chimeric antigen receptor with two tandem FRBl domains, coexpressed with iCaspase9 from iC9-CAR(19).FRBl2).
Assay [2] has as its target Her2-CAR-FRBl2 (Her2 chimeric antigen receptor with two tandem FRBl domains fused to the carboxy terminus). Briefly: cell-based or functional assay.
Assay [3] deals with CD19-CAR-FRBl2 (CD19 chimeric antigen receptor with two tandem FRBl domains, coexpressed with iCaspase9 from iC9-CAR(19).FRBl2). Briefly: cell-based or functional assay.

Sequence of CD19-CAR-FRBl2 (CD19 chimeric antigen receptor with two tandem FRBl domains, coexpressed with iCaspase9 from iC9-CAR(19).FRBl2) (chain, as listed by the source mutant limits assumed): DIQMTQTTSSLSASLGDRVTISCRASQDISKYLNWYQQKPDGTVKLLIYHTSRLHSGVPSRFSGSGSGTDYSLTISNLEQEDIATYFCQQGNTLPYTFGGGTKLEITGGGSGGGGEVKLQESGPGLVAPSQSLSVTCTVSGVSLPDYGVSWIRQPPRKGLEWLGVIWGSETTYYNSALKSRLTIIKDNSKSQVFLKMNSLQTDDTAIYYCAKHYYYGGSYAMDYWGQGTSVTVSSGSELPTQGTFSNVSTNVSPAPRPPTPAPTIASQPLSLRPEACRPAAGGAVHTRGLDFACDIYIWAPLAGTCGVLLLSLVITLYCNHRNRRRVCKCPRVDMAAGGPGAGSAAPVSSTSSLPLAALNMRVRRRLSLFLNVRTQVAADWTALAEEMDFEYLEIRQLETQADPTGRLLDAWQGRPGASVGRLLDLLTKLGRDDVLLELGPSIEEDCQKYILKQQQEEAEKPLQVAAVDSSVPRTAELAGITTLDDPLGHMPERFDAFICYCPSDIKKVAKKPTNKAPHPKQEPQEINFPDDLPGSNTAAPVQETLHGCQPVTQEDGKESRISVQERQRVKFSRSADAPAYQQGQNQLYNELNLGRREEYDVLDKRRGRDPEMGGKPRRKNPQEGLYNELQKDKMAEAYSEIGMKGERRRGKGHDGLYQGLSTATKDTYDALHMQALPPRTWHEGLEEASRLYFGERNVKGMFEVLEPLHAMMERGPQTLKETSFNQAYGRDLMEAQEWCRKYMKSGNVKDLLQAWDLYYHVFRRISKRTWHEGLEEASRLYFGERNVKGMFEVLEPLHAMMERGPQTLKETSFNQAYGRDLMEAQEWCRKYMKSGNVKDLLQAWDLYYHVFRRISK
Sequence of Her2-CAR-FRBl2 (Her2 chimeric antigen receptor with two tandem FRBl domains fused to the carboxy terminus) (chain, as listed by the source mutant limits assumed): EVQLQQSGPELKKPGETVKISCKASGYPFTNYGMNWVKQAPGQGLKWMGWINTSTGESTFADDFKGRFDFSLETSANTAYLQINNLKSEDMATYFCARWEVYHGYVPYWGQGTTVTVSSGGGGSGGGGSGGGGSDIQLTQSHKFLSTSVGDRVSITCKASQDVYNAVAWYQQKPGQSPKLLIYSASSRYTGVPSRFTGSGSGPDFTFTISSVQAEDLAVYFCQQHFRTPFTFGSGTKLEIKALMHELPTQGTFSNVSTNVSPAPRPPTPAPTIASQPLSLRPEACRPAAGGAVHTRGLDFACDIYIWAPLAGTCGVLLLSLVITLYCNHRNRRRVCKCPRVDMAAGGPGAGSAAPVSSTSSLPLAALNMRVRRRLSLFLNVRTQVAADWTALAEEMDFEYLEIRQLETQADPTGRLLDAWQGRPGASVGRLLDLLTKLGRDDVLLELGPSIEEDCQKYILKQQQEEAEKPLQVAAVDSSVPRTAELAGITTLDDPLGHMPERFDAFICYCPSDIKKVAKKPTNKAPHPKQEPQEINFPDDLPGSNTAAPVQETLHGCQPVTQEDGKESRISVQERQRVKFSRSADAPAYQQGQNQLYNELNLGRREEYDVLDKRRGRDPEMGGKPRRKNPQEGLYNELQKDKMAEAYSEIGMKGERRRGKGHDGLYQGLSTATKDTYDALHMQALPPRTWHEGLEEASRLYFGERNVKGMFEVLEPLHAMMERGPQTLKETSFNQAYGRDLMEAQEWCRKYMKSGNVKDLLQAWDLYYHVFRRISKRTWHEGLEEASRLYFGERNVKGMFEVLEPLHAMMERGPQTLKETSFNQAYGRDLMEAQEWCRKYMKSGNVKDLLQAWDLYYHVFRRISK

“inducible Caspase-9 (FKBP12v36 - SGGGSG linker - dCaspase9) (enzyme)”: the IC50 (read off the curve): concentration of the dimerizer rapamycin (not of a protein) at half-maximal loss of SEAP activity, 293 cells expressing iC9.CAR(19)-FRBl2 in assay [1] came to 1 nM. For the same substance, the SEAP activity (constitutive SRα-SEAP reporter in transfected 293 cells, overnight with half-log dilutions of rapamycin) (% decrease of SEAP activity) in assay [2] and in assay [3] was 50 in each case.
